Here are results for three molecules from patent US20100087368A1.

Data set [1] addresses rat Protein C (rat) (UniProt P31394). The data set can be described thus: cell-based or functional assay.
Data set [2] concerns the target T1, human sTM variant F376L.
T1 chain: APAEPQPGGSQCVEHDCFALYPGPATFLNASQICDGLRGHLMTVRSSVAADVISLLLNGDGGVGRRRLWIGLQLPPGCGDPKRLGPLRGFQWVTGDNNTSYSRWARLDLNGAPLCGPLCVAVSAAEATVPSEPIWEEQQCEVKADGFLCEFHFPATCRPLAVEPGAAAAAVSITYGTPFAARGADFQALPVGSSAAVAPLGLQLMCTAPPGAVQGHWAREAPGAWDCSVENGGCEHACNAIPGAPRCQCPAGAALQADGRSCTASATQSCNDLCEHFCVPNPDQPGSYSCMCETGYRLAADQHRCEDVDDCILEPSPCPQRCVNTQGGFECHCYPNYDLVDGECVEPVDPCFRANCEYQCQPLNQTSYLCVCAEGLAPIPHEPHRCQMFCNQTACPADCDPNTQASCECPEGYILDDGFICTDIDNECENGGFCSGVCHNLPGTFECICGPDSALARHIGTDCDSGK

Data set [3] concerns the target T2, human soluble thrombomodulin (human sTM).
T2 chain: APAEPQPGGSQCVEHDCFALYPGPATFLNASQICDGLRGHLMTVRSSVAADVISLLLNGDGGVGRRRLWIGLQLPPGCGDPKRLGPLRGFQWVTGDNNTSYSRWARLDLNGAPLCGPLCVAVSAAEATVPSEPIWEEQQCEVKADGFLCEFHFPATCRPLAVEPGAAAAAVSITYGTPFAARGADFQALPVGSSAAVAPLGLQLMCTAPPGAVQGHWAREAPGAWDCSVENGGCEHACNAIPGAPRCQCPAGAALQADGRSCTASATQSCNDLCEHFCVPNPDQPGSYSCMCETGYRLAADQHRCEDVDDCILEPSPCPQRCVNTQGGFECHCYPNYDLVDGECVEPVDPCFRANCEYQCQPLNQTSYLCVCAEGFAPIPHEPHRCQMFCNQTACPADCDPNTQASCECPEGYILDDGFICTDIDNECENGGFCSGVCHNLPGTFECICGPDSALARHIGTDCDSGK

Data set [4] concerns the target T3, rat soluble thrombomodulin (rat sTM).
T3 chain: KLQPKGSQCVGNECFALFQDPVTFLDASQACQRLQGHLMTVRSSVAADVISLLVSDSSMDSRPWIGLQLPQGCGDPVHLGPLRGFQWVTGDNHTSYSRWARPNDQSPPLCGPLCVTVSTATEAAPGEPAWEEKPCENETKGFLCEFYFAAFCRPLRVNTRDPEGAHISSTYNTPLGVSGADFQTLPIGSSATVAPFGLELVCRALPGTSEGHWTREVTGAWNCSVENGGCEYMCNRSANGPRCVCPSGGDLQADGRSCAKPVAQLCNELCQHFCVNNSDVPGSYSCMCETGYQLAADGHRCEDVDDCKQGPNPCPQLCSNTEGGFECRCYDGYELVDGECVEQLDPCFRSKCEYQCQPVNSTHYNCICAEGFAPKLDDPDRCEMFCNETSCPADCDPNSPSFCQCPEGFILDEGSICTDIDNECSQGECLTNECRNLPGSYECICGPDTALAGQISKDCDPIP

Turning to “endogenous human thrombomodulin on human aortic endothelial cells (from UniProt P07204 19-575) (receptor)”, the percent PC activation in the presence of rat thrombin, against human thrombin with human Protein C as 100% (human aortic endothelial cells, chromogenic substrate) in data set [1] turned out to be 0%.
For the molecule “endogenous human thrombomodulin on human aortic endothelial cells (from UniProt P07204 19-575)”, the percent PC activation in the presence of human thrombin, against human thrombin with human Protein C as 100% (human aortic endothelial cells, chromogenic substrate) in data set [1] was 12.8%.

B1: rat Protein C (protein)
chain: ANSFLEEVRAGSLERECMEEICDFEEAQEIFQNVEDTLAFWIKYFDGDQCSTPPLDHQCDSPCCGHGTCIDGLGGFSCSCDKGWEGRFCQQEMGFQDCRVKNGGCYHYCLEETRGRRCRCAPGYELADDHMHCRPTVNFPCGKLWKRTDKKRKNFKRDIDPEDEELELGPRIVNGTLTKQGDSPWQAILLDSKKKLACGGVLIHTSWVLTAAHCLESSKKLTVRLGEYDLRRRDPWELDLDIKEVLVHPNYTRSNSDNDIALLRLSQPATLSKTIVPICLPNSGLAQELSQAGQETVVTGWGYQSDKVKDGRRNRTFILTFIRIPLAARNDCMQVMNNVVSENMLCAGIIGDTRDACDGDSGGPMVVFFRGTWFLVGLVSWGEGCGHLNNYGVYTKVGSYLKWIHSYIGERDVSLKSPKL
Take B1: the results for the “Vmax(mOD405/min) of rat Protein C activation in the presence of rat thrombin (chromogenic substrate S2366)” value in data set [2], in data set [3] and in data set [4] were “TLD”, 3.1 mOD405/min and 47.1 mOD405/min, respectively.
